± gives the uncertainty stated by the source.
Assay: amyloid nucleation score (Sup35N fusion, yeast selection) (log enrichment); library NNK1; higher = more nucleation; inactive = no reads after selection
In short: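 Random libraries were run with three technical output replicates. In each, psi-negative yeast expressing Sup35N fused to peptides of 20 random codons were induced 24 hours with 100 μM copper sulfate and grown 7 days at 30°C on medium lacking adenine and uracil, and input and output plasmid inserts were Illumina-sequenced. The nucleation score is the DiMSum log enrichment of output over input reads, centred on the mode score of non-aggregating sequences, and sequences under 100 input reads were excluded.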

| Substance | amyloid nucleation score |
| --- | --- |
| ATFSFGRT | inactive |
| ATGTSWYVPGRVGLCGYWLI | -0.153 ± 0.23 |
| ATHKNWIKRDTVHSLDGC | 0.041 ± 0.26 |
| ATLLFRFV | 0.831 ± 0.64 |
| ATRSMEAIIMRELWYIDPVY | 0.831 ± 0.87 |
| AVCSMKKSVMYELNVGFTYR | inactive |
| AVFHRREVRELAHRQPLLPI | 1.03 ± 0.66 |
| AVFIGCVNAGS | 0.621 ± 0.39 |
| AVFLY | -0.153 ± 0.33 |
| AVLIRSGCRIRNRRHG | 0.782 ± 0.75 |
| AVLKGYRWACMVFLSGFGRC | 0.243 ± 0.41 |
| AVLLCRSESCCKYSAIANSG | -1.22 ± 0.69 |
| AVMMHDTVGVHW | -0.609 ± 0.6 |
| AVSIWSPRIGVCETFQLDVV | -0.573 ± 0.57 |
| AVSSYYVERRYLNLQGANRY | 3.22 ± 0.15 |
| AWMGLKNVN | 1.59 ± 0.69 |
| AWYMPIWFLAYFL | 1.24 ± 0.14 |
| AYAGLRCVGSDVIAGKTVAN | 0.684 ± 1.2 |
| AYCLRN | 0.211 ± 0.68 |
| AYFMVHLLIF | 1.34 ± 0.13 |
| AYNFRSRRWMLFGYNWVSAP | 1.59 ± 0.51 |
| AYNLLYN | 1.59 ± 0.69 |

| Substance | amyloid nucleation score |
| --- | --- |
| AYVDAL | 1.53 ± 0.48 |
| AYVRGCLFILPFRPTQV | 1.42 ± 0.14 |
| CAFEAGLWTSDFLNEPVYHY | -0.126 ± 0.3 |
| CCDIEITLSHGVIGICSRKT | 0.844 ± 0.26 |
| CCDVHGCVGNMLSFTGILLF | 3.54 ± 0.076 |
| CCGGECLRVYRIMLGTVECT | 0.329 ± 0.28 |
| CCHRGCGAFVGWMHQFGWYI | -0.186 ± 0.42 |
| CCIFIDFTVIALGRTLVVRH | -1.17 ± 1.2 |
| CCPDSQIIRYNIYAVVYLRM | 1.92 ± 0.57 |
| CCVNVPIFRRKFGTCSCKAW | 0.065 ± 0.93 |
| CDEGWEESNSTD | -0.522 ± 1.6 |
| CDERNNAFLGVFGSS | -0.288 ± 0.47 |
| CDGLLYELRSVEWGKGKLNG | 0.438 ± 0.38 |
| CDGNHSRSLRLIDLGPGF | -0.558 ± 1.1 |
| CDLFSRACGSAMDTYNKSHI | -1.01 ± 0.9 |
| CDNDSMWGYCLTTRMGRFTA | -0.379 ± 0.59 |
| CDNRRNFSSWVVDISKYITI | -0.946 ± 0.57 |
| CDRLIKVSYRFIGAADRRWM | 1.35 ± 0.76 |
| CDSVV | -0.221 ± 0.73 |
| CDWGN | 1.14 ± 0.93 |
| CEVSIVSLARYVGREDLFDR | 0.213 ± 0.65 |
| CFCFFIVSPMMF | 3.89 ± 0.056 |

| Substance | amyloid nucleation score |
| --- | --- |
| CFCFKPSVKE | -1.71 ± 2.4 |
| CFDNSFTFPPDG | 0.066 ± 0.3 |
| CFFPIRDQQCTRSYHFSDHM | 0.727 ± 0.63 |
| CFIIIQPCANGWWYRCRSCV | -0.236 ± 0.38 |
| CFKFARGGVLI | 1.32 ± 0.66 |
| CFLYNSFYILDISELLQGST | 4.81 ± 0.049 |
| CFMETYSWKVRYTLFHKLST | 0.552 ± 0.79 |
| CFNMFT | -0.607 ± 0.76 |
| CFPDICWHSVK | 0.125 ± 0.79 |
| CFPMIQMEHSIKS | -0.449 ± 1.1 |
| CFPRSRRRQRSFNLCVRESR | 1.13 ± 0.57 |
| CFPSSVFVGCIFF | 7.532 ± 0.044 |
| CFQPWKNLKAY | -0.67 ± 0.68 |
| CFRFDYVGTYKHMPFR | 4.02 ± 0.16 |
| CFRHRYRQLGIMWWGLRLQL | -1.44 ± 2.4 |
| CFRISARFFRVQFHGVVCIW | 1.51 ± 0.25 |
| CFSISVTAYHSKSAT | 4.14 ± 0.099 |
| CFSSNCMEFLSNVLYKNINP | 0.626 ± 0.78 |
| CFVVCDMAF | inactive |
| CFWRNFDRGEAS | 0.94 ± 0.97 |
| CGAYRMWQYKASRGTHWPYT | -0.182 ± 0.6 |
| CGFEVFVRIV | 0.431 ± 0.7 |

| Substance | amyloid nucleation score |
| --- | --- |
| CGKTMGINAGMCSTNWGGPT | 0.263 ± 0.33 |
| CGPELNESQG | -0.485 ± 0.67 |
| CGRTYRGLS | 0.959 ± 0.72 |
| CGYMLVYDAHMHRSLLCAC | -0.285 ± 0.26 |
| CHLVSSTSAFA | 1.01 ± 0.56 |
| CHMKYFREVVATV | 0.186 ± 1.1 |
| CHSINLGLNPFKYVNLPNGH | 2.38 ± 0.15 |
| CHTTKNYVYCVCMQFVTHQ | 6.725 ± 0.045 |
| CIDYYLCLNMYRTGWYLRLC | inactive |
| CIISGMLWLAMKRTMGIELW | 2.88 ± 0.18 |
| CIRVWCLILSRSWGFTPANC | 1.18 ± 0.9 |
| CKDCYLITGVVINYPSRPLW | 5.985 ± 0.049 |
| CKKSCGSVRSNASLTKDWSN | -0.097 ± 0.28 |
| CKNNGGKDMSVMI | 1.14 ± 0.49 |
| CKRWRSILVKSSRSIMGTDV | -0.171 ± 1.1 |
| CKSRR | 0.034 ± 0.69 |
| CLEFLG | -0.526 ± 0.49 |
| CLETACRILGFCN | -0.488 ± 0.21 |
| CLFFNYRVIEFNTPGVNMFW | 0.739 ± 0.33 |
| CLGQDKLWNFVFTFLYLLQF | -0.172 ± 0.48 |
| CLHFFTQTTVWCKHVSSQKV | 0.21 ± 0.48 |
| CLILG | -1.31 ± 0.52 |

| Substance | amyloid nucleation score |
| --- | --- |
| CLLLARVVALVGPPSRTSGV | -0.121 ± 0.4 |
| CLLRTRFWR | 0.364 ± 0.56 |
| CLPNSYGAV | 0.435 ± 0.53 |
| CLYVAESSTTMNLWDHSVLP | -0.575 ± 0.41 |
| CMHEKIYIITCRSCGLREIR | 0.164 ± 0.39 |
| CMVSIQVVFKH | 4.44 ± 0.1 |
| CNDISISFYMRTGACYWRVW | -0.499 ± 0.46 |
| CNMSQC | inactive |
| CNPEGYRAHVLCFLNFA | 3.63 ± 0.092 |
| CNRSLWAGPRLHPWTRMYVR | 0.85 ± 0.62 |
| CNYCIWPARFVVIHDAMCVS | -0.98 ± 1.1 |
| CPASVMAKRYCQLKMGWWGP | 0.202 ± 0.37 |
| CPLAIVDTVHCRNSSSFSQ | -0.488 ± 0.45 |
| CPPSYLMT | -0.464 ± 0.45 |
| CPRIYGVRLKSSRLPAGVYV | 1 ± 1 |
| CPVMA | -0.094 ± 0.27 |
| CQELYLKFVVENFSTFLRNH | -2.68 ± 2.7 |
| CQVPGSRRHRRSIRERQNWN | 1.32 ± 0.62 |
| CRAGLVMSGWCRWFAQWMDS | -0.551 ± 0.59 |
| CRCMLSLLRIRLGVSSARLG | 0.143 ± 0.49 |
| CRLDGT | -0.36 ± 0.72 |
| CRLESGHYLCSHGRVSGLR | 0.796 ± 0.38 |

| Substance | amyloid nucleation score |
| --- | --- |
| CRLISCDRFRSTRSKG | 0.016 ± 0.52 |
| CRLKH | 0.123 ± 0.3 |
| CRRRPSSDELSVLWDAEGRY | 0.009 ± 0.66 |
| CSAYGKNTMGSESPVMSMAS | 0.368 ± 0.72 |
| CSCGLSYGLYFE | 0.786 ± 0.92 |
| CSGNRMDPLTVRLFVGLGIL | 0.347 ± 0.43 |
| CSHRM | 0.707 ± 0.51 |
| CSILF | 0.011 ± 0.75 |
| CSRNDTVHATINMWDNSATA | -0.07 ± 0.41 |
| CSRTMTWYP | -1.14 ± 1.3 |
| CSSDFYYLAELNLPFN | 0.917 ± 0.43 |
| CSSRVRMTRQLVKLVNICMR | -0.122 ± 0.97 |
| CSVRAVGILRWAFFGEHPLN | -0.422 ± 0.41 |
| CSYLSLRRKCVDTQFLYDMM | -0.199 ± 0.47 |
| CTEKMIFTDLHRLRVVYKYT | -0.59 ± 1.6 |
| CTLVDHYWGCEGRSCARCSS | 0.233 ± 0.55 |
| CTREVLWGCHCNSSASNLFS | -0.202 ± 0.61 |
| CTRVTSRAM | -0.757 ± 0.9 |
| CTVRFIYRKLN | -0.325 ± 0.33 |
| CVDRNG | -0.362 ± 0.39 |
| CVGGWWKTRHMSIWNWIWWL | 0.197 ± 0.9 |

Reference: the supplement of paper PMC12042874
